{
  "source": "paper doi:10.1101/2020.06.22.166033",
  "biological_target": "SARS-CoV-2-RBD-AVI probe (SARS-CoV-2) (UniProt P0DTC2)",
  "experiment": "SPR",
  "note": "pKd: −log10 of the molar value.",
  "data": [
    {"substance": "CR3022 Fab", "values": [
      {"measurement": "pKd", "result": 7.60}
    ]}
  ]
}
